Test [1] addresses T1, MAGE-A4 peptide on HLA-A*24:02 (human).
T1 peptide: NYKRCFPVI
Nature of the test: multimer staining.

Test [2] concerns the target T2, MAGE-A4 peptide on HLA-A*02:01 (human).
T2 peptide: NYKRCFPVI
Put plainly: killing. As to the method:
(§1) The T2 cells, the T2-A24 cells, and T2-A2 cells prepared by transfecting HLA-A0201 gene into T2 cells were washed 3 times with RPMI 1640 medium, and the washed cells were suspended in RPMI 1640 medium so as to have a density of 5×10⁶ cells/mL. P143 or P715 was added to 1 mL each of the above-mentioned cell suspensions so as to have a final concentration of 10 μM, and the mixture was allowed to stand at room temperature for 15 minutes. Thereafter, 1 mL each of RPMI 1640 medium containing 10% FCS was added thereto, and the mixture was incubated at 37° C. for 1 hour. […]
(§2) The ms69 cells, the RNA-transduced ms69 cells, the #2-28 cells, the CD8 positive cells, and the RNA-transduced CD8 cells were washed twice with RPMI 1640 medium, and the washed cells were suspended in RPMI 1640 medium containing 10% FCS so as to have a density of 2×10⁶ cells/mL, 1×10⁶ cells/mL, 5×10⁵ cells/mL, 2.5×10⁵ cells/mL, 1.25×10⁵ cells/mL, and 6.25×10⁴ cells/mL (effector cells), respectively, and a 100 μL portion thereof was put in each well of a 96-well V-bottom plate. […] The mixture was reacted at 37° C. for 4 hours, and thereafter the supernatants were collected by centrifugation, and an amount of ⁵¹Cr released to 100 μL of the supernatant was determined by using a gamma counter. The specific cytotoxic activity was calculated from the measured value of radioactivity according to the following formula.

Test [3] concerns the target T3, SAGE peptide on HLA-A*24:02 (human).
T3 peptide: LYATVIHDI
Put plainly: killing. How it is done:
as §1, §2

B1: HLA-A24-restricted, MAGE-A4 143-151-specific TCR of CTL clone #2-28 (SEQ ID NOs 1 and 2) (TCR, V domains shown)
Valpha: AQSVSQHNHHVILSEAASLELGCNYSYGGTVNLFWYVQYPGQHLQLLLKYFSGDPLVKGIKGFEAEFIKSKFSFNLRKPSVQWSDTAEYFCAGRGGGNKLTFGTGTQLKVEL
Vbeta: DTGVSQNPRHKITKRGQNVTFRCDPISEHNRLYWYRQTLGQGPEFLTYFQNEAQLEKSRLLSDRFSAERPKGSFSTLEIQRTEQGDSAMYLCASSLAQGAGETQYFGPGTRLLVL
Take B1: the binding result in test [1] is recorded as “recognises”; in test [2], “no recognition”; in test [3], “no recognition”.

The values above are taken from patent US20090324566A1 (published 2009).
